B1: TPR t1 (parent)
chain: GACCAAUCUGCCCUCAGAGCUCGAGAACAUCUUCGGAUGCAGAGGAGGCAGGCUUCGGUGGCGCGAUAGCGCCAACGUCCUCAACCUCCAAUGCAUCCCACCACAUGAUGAUGCCUGAAGAGCCUUGGUUUUUUG

Variants of: B1
Experiment: polymerase ribozyme fitness, log enrichment relative to wild type (log ratio); higher = more active; in vitro selection for triplet polymerase activity
Method in brief: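 To select mutant libraries of each subunit of a heterodimeric triplet polymerase ribozyme, built by PCR and transcribed, each was annealed with a biotinylated primer, partner subunit and triplets, then incubated frozen at −7 °C. Extended constructs were gel-excised, captured on streptavidin beads and amplified by RT-PCR, in one round carried out in triplicate. Illumina sequencing of input and output libraries kept genotypes with ≥10 input reads and ≥1 read per output. Fitness is the base-2 logarithm of genotype enrichment relative to wild-type enrichment, from inverse-variance-weighted replicate averages.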

| Variant | polymerase ribozyme fitness (log ratio) |
| --- | --- |
| U14G C79G | -3.52 |
| C15G A50U U109A | -6.25 |
| C15A G52U U55G | -1.52 |
| U14G G39A C85U G117A | -3.84 |
| C13U C56U U92C C114A | -1.92 |
| C15G A37U A66G C123A | -3.27 |
| U14C G42U G44A G61U | -2.82 |
| U14A A18U C73A G77C A119U | -3.61 |
| C15G U55C A75G | -3.14 |
| C13U C70A A84U | -1.83 |
| C15U A16U G58C C72U C80A A111C | -6.92 |
| U14C A37C | -2.09 |
| C13U C82G | 0.0764 |
| C15U A43U G45C C94G | -4.68 |
| U14A G57A G61A A90G C124A | 1.08 |
| C15A G57U C64G | -6.59 |
| C15A C72G C104U | -1.9 |
| C15A C72U G93U C114G | -5.25 |
| C15G A16U C72U U109A C115U | -6.16 |
| C13U U78A | 0.102 |
| U14A A50C U125G | -3.97 |

| Variant | polymerase ribozyme fitness (log ratio) |
| --- | --- |
| C13U C124U | 1.96 |
| U14G G42U G45C C64U C101U C123A G135U | -4.44 |
| C15U A29U A37U C62G C124G G135C | -2.45 |
| C13U C34A C70A U106A C114A | -6.64 |
| U14G C73U | -1.04 |
| C15A U109G G113A U131A | -5.16 |
| U14G A50U C56U G93U U112A | -3.22 |
| C13U U14A G71A C82G | -2.67 |
| U14C U33C | -5.43 |
| C15A A74G U81G U112C | -3.53 |
| U14A A43G G58A C86U | -4.43 |
| C13U G69U G93A U126C | -0.75 |
| C15A A29G C72A U81A U87C G120C | -2.96 |
| C13U G39A A68C A91G C123A | -7.34 |
| U14G C40G C86U A90G U106A | -3.96 |
| C15U A16U G42C G61A C89A | -1.37 |
| C13U G52C C94G A100U G113A | -2.95 |
| C15A C20A G71U A118U | -4.11 |
| U14A C70U C104U | -2.52 |
| C15G C97U | -2.23 |
| C13U C72U U92C A105G | -5.23 |

| Variant | polymerase ribozyme fitness (log ratio) |
| --- | --- |
| C15G G71U C72U A95U | -4.5 |
| U14G G120U | -1.14 |
| C13U U55A C88U | -0.31 |
| C15G G39U G48A A68U U112G | -7.39 |
| C13U C70A | -0.46 |
| C15G U92G C97U A118U | -4.66 |
| C15U A37U C62U | -1.85 |
| U14G C15A | -3.45 |
| U14A A37U G93U U132A | -4.47 |
| C15A A18U C22G U92G | -6.59 |
| C15A G47U C115A A121C U133C | -3.65 |
| C15A C22A U96A C124U | -5.05 |
| C13U G36A C88U | -0.556 |
| C15G G44C G47A G69U G135U | -3.36 |
| C13U G63A U78C | -0.503 |
| C13U G48A C56A G71A A90G | -4.36 |
| U14A C72U G93U U133A G135U | -4.17 |
| C15G U106G G117C | 0.15 |
| C15A G39A | -2.28 |
| C15A G39C | -3.41 |
| C15A C73G G117A G127U | -4.62 |

| Variant | polymerase ribozyme fitness (log ratio) |
| --- | --- |
| C15U A74G C88A A91C | -2.13 |
| C15A G61U A105C | -4.93 |
| C15G G47U A83U A108U C114G U116G G117C | -6.68 |
| C13U U21C C64U | -0.0953 |
| U14A A74C C76A A121C | -1.88 |
| C15G C56U U87A C115U U131C | -0.823 |
| C15G A84U G120U U129G | -5.84 |
| C13U C72G A74U G93A C114G | -4.31 |
| C13U G47C C72G G110A | -3.24 |
| C15U C64U G77A G93C C98U G120A C124G | -1.82 |
| C15G C28A G44U G52U G69U | -5.21 |
| U14A G52A | -3.3 |
| C13U C62G U130C G135U | -1.67 |
| C15G G42A C88G | -4.44 |
| C15A A46C G63A G113C C114U | -6.03 |
| C15G C98U | -4.22 |
| U14A U21G G120U C124U | -0.621 |
| U14G G47U C101G G120U | -4.67 |
| U14A C31U U87C U112G | -6.24 |
| U14A G63C | -2.57 |

From the RNAGym collection of RNA variant scans (doi:10.1073/pnas.2313332121)
